This test addresses NRLLLTG peptide. Briefly: ELISA; 150 ng NRLLLTG peptide coated on the plate in 0.05 M sodium carbonate pH 9.6; HSP70 protein added in a dose-dependent manner; detected with anti-HSP70 antibody, TMB, 450 nm.

“purified HSP70 S385D/S400D double phospho-mimetic mutant (from UniProt P0DMV8 1-641) (natural protein)” had a fold affinity relative to WT HSP70 of 1.5 fold.

For the origin of these results see paper PMC6802635.
